Assay results as given in the supplement of paper PMC10567573.

B1: DCAF4 (parent)
chain: TTKCVRQYEGHVNEYAYLPLHVHE
B2: LPCAT4 (parent)
chain: HDPLYGKLFSTYLRPPHTSRGTSQ

Variants of: B1
Assay: protein stability index of a GFP-peptide fusion (GPS, HEK-293T) (PSI 1-6); higher = more stable
Details: c terminus: a fixed tail appended
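Note: lentivirally expressed fusions sorted by FACS into six bins by GFP to DsRed ratio, PSI derived from sequencing read proportions per bin multiplied by bin number.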

| Variant | protein stability index |
| --- | --- |
| TTKCVRHYEGHVNEYAYLPLHVHE [Q7H] | 2.64 |
| TTKCVRSYEGHVNEYAYLPLHVHE [Q7S] | 2.75 |
| TTKCVRRYEGHVNEYAYLPLHVHE [Q7R] | 2.28 |
| TTKCVRQYEGHVLEYAYLPLHVHE [N13L] | 2.85 |
| TTKCVRQYEGHVYEYAYLPLHVHE [N13Y] | 2.09 |
| TTKCVRQYEGHVDEYAYLPLHVHE [N13D] | 2.35 |
| TTKCVRQYEGHVGEYAYLPLHVHE [N13G] | 3.04 |
| TTKCVRQYEGHVAEYAYLPLHVHE [N13A] | 2.64 |
| TTKCVRQYEGHVMEYAYLPLHVHE [N13M] | 1.88 |
| TTKCVRQYEGHVVEYAYLPLHVHE [N13V] | 2.23 |
| TTKCVRQYEGHVCEYAYLPLHVHE [N13C] | 2.35 |
| TTKCVRQYEGHVEEYAYLPLHVHE [N13E] | 3.55 |
| TTKCVRQYEGHVTEYAYLPLHVHE [N13T] | 2.64 |
| TTKCVRQYEGHVKEYAYLPLHVHE [N13K] | 2.48 |
| TTKCVRQYEGHVFEYAYLPLHVHE [N13F] | 2.02 |
| TTKCVRQYVGHVNEYAYLPLHVHE [E9V] | 2.42 |
| TTKCVRQYHGHVNEYAYLPLHVHE [E9H] | 1.97 |
| TTKCVRQYFGHVNEYAYLPLHVHE [E9F] | 1.76 |
| TTKCVRQYNGHVNEYAYLPLHVHE [E9N] | 2.52 |
| TTKCVRQYCGHVNEYAYLPLHVHE [E9C] | 1.63 |
| TTKCVRQYAGHVNEYAYLPLHVHE [E9A] | 2.29 |
| TTKCVRQYIGHVNEYAYLPLHVHE [E9I] | 1.87 |
| TTKCVRQYWGHVNEYAYLPLHVHE [E9W] | 1.61 |

| Variant | protein stability index |
| --- | --- |
| TTKCVRQYRGHVNEYAYLPLHVHE [E9R] | 2.18 |
| TTKCVRQYYGHVNEYAYLPLHVHE [E9Y] | 1.97 |
| TTKCVRQYMGHVNEYAYLPLHVHE [E9M] | 2.32 |
| ATKCVRQYEGHVNEYAYLPLHVHE [T1A] | 2.67 |
| GTKCVRQYEGHVNEYAYLPLHVHE [T1G] | 2.99 |
| RTKCVRQYEGHVNEYAYLPLHVHE [T1R] | 2.22 |
| MTKCVRQYEGHVNEYAYLPLHVHE [T1M] | 2.19 |
| STKCVRQYEGHVNEYAYLPLHVHE [T1S] | 3.81 |
| VTKCVRQYEGHVNEYAYLPLHVHE [T1V] | 2.22 |
| QTKCVRQYEGHVNEYAYLPLHVHE [T1Q] | 2.74 |
| DTKCVRQYEGHVNEYAYLPLHVHE [T1D] | 3.45 |
| TTKCVRQYEGHVNEYAYLPLHVHD [E24D] | 2.84 |
| TTKCVRQYEGHVNEYAYLPLHVHP [E24P] | 2.24 |
| TTKCVRQYEGHVNEYAYLPLHVHC [E24C] | 2.25 |
| TTKCVRQYEGHVNEYAYLPLHVHK [E24K] | 2.29 |
| TTKCVRQYEGHVNEYAYLPLHVHS [E24S] | 2.07 |
| TTKCVRQYEGHVNEYAYLPLHVHG [E24G] | 2.75 |
| TTKCVRQYEGHVNEYAYLPLHVHF [E24F] | 2.85 |
| TTKCDRQYEGHVNEYAYLPLHVHE [V5D] | 3.34 |
| TTKCERQYEGHVNEYAYLPLHVHE [V5E] | 3.29 |
| TTKCFRQYEGHVNEYAYLPLHVHE [V5F] | 2.24 |
| TTKCMRQYEGHVNEYAYLPLHVHE [V5M] | 2.18 |
| TTKCCRQYEGHVNEYAYLPLHVHE [V5C] | 2 |

| Variant | protein stability index |
| --- | --- |
| TTKCHRQYEGHVNEYAYLPLHVHE [V5H] | 2.19 |
| TTKCVRQYEGHVNEYAQLPLHVHE [Y17Q] | 3.27 |
| TTKCVRQYEGHVNEYAPLPLHVHE [Y17P] | 3.82 |
| TTKCVRQYEGHVNEYAALPLHVHE [Y17A] | 4.37 |
| TTKCVRQYEGHVNEYADLPLHVHE [Y17D] | 4.01 |
| TTKCVRQYEGHVNEYAFLPLHVHE [Y17F] | 2.55 |
| TTKCVRQYEGHVNEYACLPLHVHE [Y17C] | 3.51 |
| TTKCVRQYEGHVNEYALLPLHVHE [Y17L] | 3.79 |
| TTKCVRQYEGHPNEYAYLPLHVHE [V12P] | 2.69 |
| TTKCVRQYEGHCNEYAYLPLHVHE [V12C] | 2.48 |
| TTKCVRQYEGHHNEYAYLPLHVHE [V12H] | 2.71 |
| TTKCVRQYEGHFNEYAYLPLHVHE [V12F] | 2.11 |
| TTKCVRQYEGHKNEYAYLPLHVHE [V12K] | 3.33 |
| TTKCVRQYEGHYNEYAYLPLHVHE [V12Y] | 2.52 |
| TTKCVRQYEGWVNEYAYLPLHVHE [H11W] | 1.81 |
| TTKCVRQYEGCVNEYAYLPLHVHE [H11C] | 2.1 |
| TTKCVRQYEGQVNEYAYLPLHVHE [H11Q] | 2.53 |
| TTKCVRQYEGMVNEYAYLPLHVHE [H11M] | 2.26 |
| TTKCVWQYEGHVNEYAYLPLHVHE [R6W] | 1.73 |
| TTKCVFQYEGHVNEYAYLPLHVHE [R6F] | 1.8 |
| TTKCVMQYEGHVNEYAYLPLHVHE [R6M] | 2.38 |
| TTKCVPQYEGHVNEYAYLPLHVHE [R6P] | 2.26 |
| TTKCVGQYEGHVNEYAYLPLHVHE [R6G] | 2.58 |

Variants of: B2
Assay: as above
Details: c terminus: a fixed tail appended

| Variant | protein stability index |
| --- | --- |
| HEPLYGKLFSTYLRPPHTSRGTSQ [D2E] | 2.74 |
| HAPLYGKLFSTYLRPPHTSRGTSQ [D2A] | 2.37 |
| HHPLYGKLFSTYLRPPHTSRGTSQ [D2H] | 2.19 |
| HIPLYGKLFSTYLRPPHTSRGTSQ [D2I] | 1.96 |
| HGPLYGKLFSTYLRPPHTSRGTSQ [D2G] | 2.56 |
| HCPLYGKLFSTYLRPPHTSRGTSQ [D2C] | 2.28 |
| HFPLYGKLFSTYLRPPHTSRGTSQ [D2F] | 2.27 |
| LDPLYGKLFSTYLRPPHTSRGTSQ [H1L] | 4.22 |
| FDPLYGKLFSTYLRPPHTSRGTSQ [H1F] | 2.12 |
| QDPLYGKLFSTYLRPPHTSRGTSQ [H1Q] | 3.18 |
| SDPLYGKLFSTYLRPPHTSRGTSQ [H1S] | 3.68 |
| IDPLYGKLFSTYLRPPHTSRGTSQ [H1I] | 3.4 |
| CDPLYGKLFSTYLRPPHTSRGTSQ [H1C] | 3.66 |
| MDPLYGKLFSTYLRPPHTSRGTSQ [H1M] | 2.98 |
| WDPLYGKLFSTYLRPPHTSRGTSQ [H1W] | 2.38 |
| KDPLYGKLFSTYLRPPHTSRGTSQ [H1K] | 3.32 |
| DDPLYGKLFSTYLRPPHTSRGTSQ [H1D] | 3.52 |
| ADPLYGKLFSTYLRPPHTSRGTSQ [H1A] | 4.01 |
| EDPLYGKLFSTYLRPPHTSRGTSQ [H1E] | 2.83 |
| GDPLYGKLFSTYLRPPHTSRGTSQ [H1G] | 2.88 |
| TDPLYGKLFSTYLRPPHTSRGTSQ [H1T] | 3.96 |
| NDPLYGKLFSTYLRPPHTSRGTSQ [H1N] | 3.2 |
| VDPLYGKLFSTYLRPPHTSRGTSQ [H1V] | 4 |
| RDPLYGKLFSTYLRPPHTSRGTSQ [H1R] | 3.09 |
| PDPLYGKLFSTYLRPPHTSRGTSQ [H1P] | 3.1 |
